Experimental data taken from paper PMC12493207, “Annexin A2 interferes with complement regulation within the glomerulus” (The Journal of Biological Chemistry, 2025).

Biological target: T1, recombinant murine Factor H (murine, UniProt P06909 19-1234)
T1 construct: murine complement Factor H, residues 19-1234 of UniProt P06909; also called FH; source: CHO cells, transfected, purified from the supernatant (HiTrap His column)
Experiment: ELISA; Figure 1A-B: by the legend varying concentrations of Factor H immobilised on the plate, a fixed concentration of rA2 or of an annexin A2 fragment added, bound annexin A2 detected with an antibody (the methods tell the reverse: 800 ng rA2 adsorbed, Factor H 20 μg/ml in TBS with 2 mM Ca, 3 h, room temperature)
Conditions: both partners purified

T1 sequence (P06909 19-1234): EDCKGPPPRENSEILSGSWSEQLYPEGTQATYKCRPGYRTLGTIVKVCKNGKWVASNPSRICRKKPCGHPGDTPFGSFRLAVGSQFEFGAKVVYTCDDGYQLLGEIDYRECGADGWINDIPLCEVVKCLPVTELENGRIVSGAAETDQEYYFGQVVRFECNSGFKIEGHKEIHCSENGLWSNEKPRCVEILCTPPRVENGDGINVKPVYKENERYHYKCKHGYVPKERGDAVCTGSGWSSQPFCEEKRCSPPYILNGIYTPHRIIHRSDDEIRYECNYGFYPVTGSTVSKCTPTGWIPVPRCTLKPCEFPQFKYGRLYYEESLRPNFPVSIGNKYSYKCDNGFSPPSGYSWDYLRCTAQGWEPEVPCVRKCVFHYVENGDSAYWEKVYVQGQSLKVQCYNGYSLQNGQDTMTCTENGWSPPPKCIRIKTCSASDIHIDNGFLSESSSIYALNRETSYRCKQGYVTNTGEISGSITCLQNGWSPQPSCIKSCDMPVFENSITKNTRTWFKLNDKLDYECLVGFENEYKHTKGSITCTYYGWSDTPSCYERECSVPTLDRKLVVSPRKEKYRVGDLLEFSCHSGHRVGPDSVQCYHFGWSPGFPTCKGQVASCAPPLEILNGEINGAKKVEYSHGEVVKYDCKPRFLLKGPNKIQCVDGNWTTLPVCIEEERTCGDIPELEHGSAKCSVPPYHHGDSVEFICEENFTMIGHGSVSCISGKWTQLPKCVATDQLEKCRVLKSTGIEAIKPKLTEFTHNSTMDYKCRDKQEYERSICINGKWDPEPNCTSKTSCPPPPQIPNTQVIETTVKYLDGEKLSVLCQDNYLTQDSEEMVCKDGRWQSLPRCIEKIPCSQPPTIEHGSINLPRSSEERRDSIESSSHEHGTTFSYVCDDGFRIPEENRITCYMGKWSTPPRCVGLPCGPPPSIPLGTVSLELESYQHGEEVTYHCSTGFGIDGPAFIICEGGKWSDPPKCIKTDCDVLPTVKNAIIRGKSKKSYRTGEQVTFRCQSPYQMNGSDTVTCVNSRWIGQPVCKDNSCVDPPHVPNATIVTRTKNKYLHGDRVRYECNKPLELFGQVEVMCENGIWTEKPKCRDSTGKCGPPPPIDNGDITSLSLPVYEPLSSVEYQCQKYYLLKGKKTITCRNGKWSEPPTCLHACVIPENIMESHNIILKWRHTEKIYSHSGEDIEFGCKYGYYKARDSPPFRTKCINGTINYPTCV

- binding result: binds
B1: recombinant annexin A2 (natural protein, mouse, UniProt P07356 1-339, looked up)
chain: MSTVHEILCKLSLEGDHSTPPSAYGSVKPYTNFDAERDALNIETAVKTKGVDEVTIVNILTNRSNVQRQDIAFAYQRRTKKELPSALKSALSGHLETVILGLLKTPAQYDASELKASMKGLGTDEDSLIEIICSRTNQELQEINRVYKEMYKTDLEKDIISDTSGDFRKLMVALAKGRRAEDGSVIDYELIDQDARELYDAGVKRKGTDVPKWISIMTERSVCHLQKVFERYKSYSPYDMLESIKKEVKGDLENAFLNLVQCIQNKPLYFADRLYDSMKGKGTRDKVLIRIMVSRSEVDMLKIRSEFKRKYGKSLYYYIQQDTKGDYQKALLYLCGGDD
notes: annexin A2, mouse; cDNA reverse transcribed from total mRNA of a C57BL/6 mouse kidney; also called rA2; AnxA2; source: CHO cells, transfected, purified from the supernatant (HiTrap His column)
